The data set in a line: melting temperature; melt of duplexes. The following applies: sodium 0.0675 M; strand 1 µM.
The term Tm denotes the temperature at which the thermal transition is half complete. “CGACGTGCAGAATGTGCTG+CAGCACATCCTGCACGTCG ((((((((((.((((((((+)))))))).))))))))))”: the Tm was determined as 57.4 °C. Regarding “CGACGTGCATCATGTGCTG+CAGCACATTCTGCACGTCG (((((((((..((((((((+))))))))..)))))))))”, the Tm amounted to 50.5 °C. Consider “CGACGTGCTCTATGTGCTG+CAGCACATTGGGCACGTCG ((((((((.(.((((((((+)))))))).).))))))))”, for which the midpoint of thermal melting (Tm) was found to be 53.4 °C. With “CGACGTGCTGAATGTGCTG+CAGCACATCTGGCACGTCG ((((((((...((((((((+))))))))...))))))))” the figure was 51.7 °C; with “CGACGTGCCGCATGTGCTG+CAGCACATGAAGCACGTCG ((((((((..(((((((((+)))))))))..))))))))”, 53.8 °C.

As to “CGACGTGCTTCATGTGCTG+CAGCACATTATGCACGTCG ((((((((.(.((((((((+)))))))).).))))))))”, the Tm is 50.1 °C.

Turning to “CGACGTGCAAGATGTGCTG+CAGCACATTTAGCACGTCG ((((((((.(.((((((((+)))))))).).))))))))”, the Tm amounted to 51.1 °C. With “CGACGTGCCACATGTGCTG+CAGCACATTCAGCACGTCG ((((((((...((((((((+))))))))...))))))))”, the Tm came out at 48.9 °C.

On to “CGACGTGCAGTATGTGCTG+CAGCACATGGTGCACGTCG (((((((((..((((((((+))))))))..)))))))))”, for which the midpoint of thermal melting (Tm) worked out at 53.9 °C.

Turning to “CGACGTGCCTCATGTGCTG+CAGCACATCGCGCACGTCG ((((((((...((((((((+))))))))...))))))))”, the midpoint of thermal melting (Tm) is 46.6 °C. Regarding “CGACGTGCGCCATGTGCTG+CAGCACATTCTGCACGTCG ((((((((...((((((((+))))))))...))))))))”, the Tm stood at 47.8 °C. Under “CGACGTGCATTATGTGCTG+CAGCACATATGGCACGTCG ((((((((..(((((((((+)))))))))..))))))))” stands 51.8 °C; under “CGACGTGCTCTATGTGCTG+CAGCACATCTCGCACGTCG ((((((((...((((((((+))))))))...))))))))”, 47.1 °C; under “CGACGTGCCCAATGTGCTG+CAGCACATGCGGCACGTCG (((((((((..((((((((+))))))))..)))))))))”, 54.3 °C. Under “CGACGTGCCCCATGTGCTG+CAGCACATTAAGCACGTCG ((((((((...((((((((+))))))))...))))))))” stands 47.2 °C; under “CGACGTGCGTAATGTGCTG+CAGCACATACTGCACGTCG ((((((((...((((((((+))))))))...))))))))”, 52.4 °C.

As to “CGACGTGCCGAATGTGCTG+CAGCACATTCAGCACGTCG ((((((((.((((((((((+)))))))))).))))))))”, the Tm was determined as 57 °C. With “CGACGTGCAACATGTGCTG+CAGCACATCACGCACGTCG ((((((((...((((((((+))))))))...))))))))” the figure was 46.5 °C. For the substance “CGACGTGCCAGATGTGCTG+CAGCACATCGGGCACGTCG (((((((((.(((((((((+))))))))).)))))))))”, the Tm was 62.2 °C. For “CGACGTGCTCCATGTGCTG+CAGCACATGCTGCACGTCG ((((((((..(((((((((+)))))))))..))))))))”, the Tm was 50.8 °C.

“CGACGTGCATAATGTGCTG+CAGCACATGCGGCACGTCG ((((((((...((((((((+))))))))...))))))))”: the Tm was 48.7 °C.

Take “CGACGTGCATTATGTGCTG+CAGCACATTCGGCACGTCG ((((((((...((((((((+))))))))...))))))))”: the Tm is 48.5 °C.

With “CGACGTGCCTCATGTGCTG+CAGCACATTATGCACGTCG ((((((((.(.((((((((+)))))))).).))))))))”, the Tm was 47.7 °C.

In the case of “CGACGTGCGACATGTGCTG+CAGCACATGCGGCACGTCG ((((((((..(((((((((+)))))))))..))))))))”, the Tm amounted to 54.4 °C. Under “CGACGTGCGTGATGTGCTG+CAGCACATCCTGCACGTCG ((((((((..(((((((((+)))))))))..))))))))” stands 55.6 °C. Under “CGACGTGCCCAATGTGCTG+CAGCACATCGTGCACGTCG ((((((((.(.((((((((+)))))))).).))))))))” stands 45.8 °C; under “CGACGTGCCACATGTGCTG+CAGCACATAATGCACGTCG ((((((((...((((((((+))))))))...))))))))”, 47.5 °C; under “CGACGTGCAGCATGTGCTG+CAGCACATAGGGCACGTCG ((((((((...((((((((+))))))))...))))))))”, 46.4 °C. With “CGACGTGCAATATGTGCTG+CAGCACATGCTGCACGTCG (((((((((..((((((((+))))))))..)))))))))” the figure was 50.7 °C; with “CGACGTGCAAAATGTGCTG+CAGCACATTAAGCACGTCG ((((((((..(((((((((+)))))))))..))))))))”, 52.4 °C. As for “CGACGTGCGTAATGTGCTG+CAGCACATGAGGCACGTCG ((((((((.(.((((((((+)))))))).).))))))))”, the midpoint of thermal melting (Tm) is 53.6 °C.

As to “CGACGTGCATGATGTGCTG+CAGCACATCCAGCACGTCG ((((((((..(((((((((+)))))))))..))))))))”, the midpoint of thermal melting (Tm) amounted to 53.6 °C. With “CGACGTGCGTTATGTGCTG+CAGCACATCGAGCACGTCG ((((((((...((((((((+))))))))...))))))))” the figure was 52.2 °C; with “CGACGTGCGTAATGTGCTG+CAGCACATAGGGCACGTCG ((((((((...((((((((+))))))))...))))))))”, 51.1 °C; with “CGACGTGCGAAATGTGCTG+CAGCACATGAGGCACGTCG ((((((((...((((((((+))))))))...))))))))”, 54.5 °C. With “CGACGTGCCTAATGTGCTG+CAGCACATGAAGCACGTCG ((((((((.(.((((((((+)))))))).).))))))))” the figure was 51 °C; with “CGACGTGCCGGATGTGCTG+CAGCACATAATGCACGTCG ((((((((...((((((((+))))))))...))))))))”, 48.6 °C; with “CGACGTGCCTGATGTGCTG+CAGCACATCGGGCACGTCG (((((((((.(((((((((+))))))))).)))))))))”, 61.7 °C.

For the substance “CGACGTGCAGTATGTGCTG+CAGCACATACTGCACGTCG (((((((((((((((((((+)))))))))))))))))))”, the Tm is 62.7 °C. Under “CGACGTGCTCTATGTGCTG+CAGCACATGTAGCACGTCG (((((((((..((((((((+))))))))..)))))))))” stands 52.3 °C. Under “CGACGTGCGGAATGTGCTG+CAGCACATTTAGCACGTCG ((((((((..(((((((((+)))))))))..))))))))” stands 55.1 °C. With “CGACGTGCCGCATGTGCTG+CAGCACATGAGGCACGTCG (((((((((.(((((((((+))))))))).)))))))))” the figure was 62.6 °C. Turning to “CGACGTGCGCTATGTGCTG+CAGCACATATAGCACGTCG ((((((((..(((((((((+)))))))))..))))))))”, the Tm worked out at 53.8 °C. With “CGACGTGCGGAATGTGCTG+CAGCACATTAAGCACGTCG ((((((((..(((((((((+)))))))))..))))))))” the figure was 55.8 °C; with “CGACGTGCTAAATGTGCTG+CAGCACATTTAGCACGTCG (((((((((((((((((((+)))))))))))))))))))”, 61.6 °C. With “CGACGTGCTTTATGTGCTG+CAGCACATAGAGCACGTCG (((((((((.(((((((((+))))))))).)))))))))” the figure was 55.2 °C; with “CGACGTGCGCAATGTGCTG+CAGCACATACAGCACGTCG ((((((((...((((((((+))))))))...))))))))”, 51.4 °C; with “CGACGTGCTGAATGTGCTG+CAGCACATACGGCACGTCG ((((((((.(.((((((((+)))))))).).))))))))”, 54.1 °C.

As for “CGACGTGCCAGATGTGCTG+CAGCACATTGCGCACGTCG ((((((((...((((((((+))))))))...))))))))”, the Tm was determined as 51.2 °C. Under “CGACGTGCCAAATGTGCTG+CAGCACATGACGCACGTCG ((((((((...((((((((+))))))))...))))))))” stands 47.5 °C.

On to “CGACGTGCACAATGTGCTG+CAGCACATCGAGCACGTCG ((((((((.(.((((((((+)))))))).).))))))))”, for which the Tm turned out to be 48.6 °C. With “CGACGTGCGGAATGTGCTG+CAGCACATGCGGCACGTCG ((((((((.(.((((((((+)))))))).).))))))))” the figure was 54.3 °C; with “CGACGTGCGCCATGTGCTG+CAGCACATTCGGCACGTCG ((((((((...((((((((+))))))))...))))))))”, 47.5 °C. With “CGACGTGCGAGATGTGCTG+CAGCACATGGGGCACGTCG ((((((((...((((((((+))))))))...))))))))” the figure was 51.1 °C. With “CGACGTGCGGTATGTGCTG+CAGCACATAAGGCACGTCG ((((((((..(((((((((+)))))))))..))))))))” the figure was 53 °C; with “CGACGTGCCGGATGTGCTG+CAGCACATCCAGCACGTCG ((((((((.((((((((((+)))))))))).))))))))”, 59 °C; with “CGACGTGCGCGATGTGCTG+CAGCACATACCGCACGTCG (((((((((..((((((((+))))))))..)))))))))”, 53.8 °C. Consider “CGACGTGCGCTATGTGCTG+CAGCACATGTGGCACGTCG ((((((((...((((((((+))))))))...))))))))”, for which the Tm came to 50.8 °C.

For “CGACGTGCGGTATGTGCTG+CAGCACATTATGCACGTCG ((((((((...((((((((+))))))))...))))))))”, the midpoint of thermal melting (Tm) was found to be 51.3 °C. With “CGACGTGCGGAATGTGCTG+CAGCACATATAGCACGTCG ((((((((...((((((((+))))))))...))))))))” the figure was 55 °C; with “CGACGTGCCTTATGTGCTG+CAGCACATTGGGCACGTCG (((((((((..((((((((+))))))))..)))))))))”, 55 °C; with “CGACGTGCACAATGTGCTG+CAGCACATATTGCACGTCG (((((((((..((((((((+))))))))..)))))))))”, 48 °C. Under “CGACGTGCTCCATGTGCTG+CAGCACATATGGCACGTCG ((((((((...((((((((+))))))))...))))))))” stands 49 °C; under “CGACGTGCTTGATGTGCTG+CAGCACATCAAGCACGTCG (((((((((((((((((((+)))))))))))))))))))”, 64.9 °C.

As for “CGACGTGCAGCATGTGCTG+CAGCACATATTGCACGTCG (((((((((..((((((((+))))))))..)))))))))”, the midpoint of thermal melting (Tm) was determined as 49.1 °C.

In the case of “CGACGTGCCATATGTGCTG+CAGCACATGGCGCACGTCG ((((((((...((((((((+))))))))...))))))))”, the midpoint of thermal melting (Tm) was found to be 50.3 °C.

Source of the values: the array DNA melting data of Ke et al..
